The values below come from the supplement of paper PMC7877785.

The data set is described as follows: self-splicing fitness, log relative to wild type (ln ratio); higher = more splicing; Tetrahymena group I intron in knt gene, E. coli kanamycin selection, DiMSum; sequences stand for … in CUCUCU…GGAGGGAAAAGUUAUCAGGCAUGCACCUGGUAGCUAGUCUUUAAACCAAUAGAUUGCAUCGGUUUAAAAGGCAAGACCGUCAAAUUGCGGGAAAGGGGUCAACAGCCGUUCAGUACCAAGUCUCAGGGGAAACUUUGAGAUGGCCUUGCAAAGGGUAUGGUAAUAAGCUGACGGACAUGGUCCUAACCACGCAGCCAAGUCCUAAGUCAACAGAUCUUCUGUUGAUAUGGAUGCAGUUCACAGACUAAAUGUCGGUCGGGGAAGAUGUAUUCUUCUCAUAAGAUAUAGUCGGACCUCUCCUUAAUGGGAGCUAGCGGAUGAAGUGAUGCAACACUGGAGCCGCUGGGAACUAAUUUGUAUGCGAAAGUAUAUUGAUUAGUUUUGGAGUACUCGUGGUCG
The procedure, abridged:
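Pooled colonies went to amplicon sequencing on an Illumina HiSeq 2500 after six replicate transformations. The plates were LB agar with 100 μg/mL carbenicillin, 50 μM IPTG and 0.2% rhamnose, with or without 25 μg/mL kanamycin, incubated overnight at 37°C or 30°C. The E. coli BL21(DE3) library had all eight P1ex-region intron nucleotides randomised, the intron placed in the knt kanamycin-resistance gene on pET-22b(+). DiMSum fitness is the error-weighted combination of replicate fold changes, kanamycin against none, normalised to wild type.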

± gives the uncertainty stated by the source.

With AAGAAGCAAUAUUACGGAGC, the “self-splicing fitness (ln)” value was -3.35 ± 0.24 (30 °C) and -2.66 ± 0.23 (37 °C).
AUGCAGCAAUAUUACGUAUG: the “self-splicing fitness (ln)” value is -3.15 ± 0.16 (30 °C) and -1.09 ± 0.16 (37 °C).
On to UCGUAGCAAUAUUACGUAGC, for which, under “30 °C”, the “self-splicing fitness (ln)” value was -2.27 ± 0.43.
Take AUUCAGCAAUAUUACGGGGC: the “self-splicing fitness (ln)” value was -3.25 ± 0.3 (30 °C) and -2.99 ± 0.21 (37 °C).
Take UUCAAGCAAUAUUACGACAU: the “self-splicing fitness (ln)” value is, setting by setting: (30 °C) -1.614 ± 0.014; (37 °C) -0.69 ± 0.033.
Regarding GUGGAGCAAUAUUACGUUCG, the “self-splicing fitness (ln)” value is -1.45 ± 0.2 (30 °C) and -0.499 ± 0.25 (37 °C).
For CAAGAGCAAUAUUACGGCGG the same measures were -0.86 ± 0.069 and -0.283 ± 0.094.
Taken in the same sequence, the figures for UGGAAGCAAUAUUACGCACU were -0.488 ± 0.12 and -0.124 ± 0.15.
For ACGCAGCAAUAUUACGAAAC the same measures were -3.07 ± 0.4 and -1.58 ± 0.21.
As to ACAAAGCAAUAUUACGUGUG, the “self-splicing fitness (ln)” value is -1.91 ± 0.052 (30 °C) and -0.905 ± 0.057 (37 °C).
Taken in the same sequence, the figures for ACCCAGCAAUAUUACGACGU were -0.291 ± 0.055 and 0.39 ± 0.071.
For UAAGAGCAAUAUUACGUUUC the same measures were -3.76 ± 0.26 and -2.51 ± 0.39.
For GCUAAGCAAUAUUACGAGUU the same measures were -1.33 ± 0.082 and -0.818 ± 0.11.
As for CCGAAGCAAUAUUACGUUUG, the “self-splicing fitness (ln)” value by setting is: (30 °C) -4.44 ± 0.22; (37 °C) -0.979 ± 0.1.
For UUAUAGCAAUAUUACGGCUU the same measures were -1.99 ± 0.17 and -0.583 ± 0.18.
As to UAAUAGCAAUAUUACGGCCA, the “self-splicing fitness (ln)” value by setting is: (30 °C) -0.34 ± 0.17; (37 °C) 0.175 ± 0.18.
Taken in the same sequence, the figures for AGAUAGCAAUAUUACGUGAC were -3.44 ± 0.23 and -2.71 ± 0.48.
On to ACCCAGCAAUAUUACGCCCG, for which the “self-splicing fitness (ln)” value is -2.3 ± 0.18 (30 °C) and -1.22 ± 0.19 (37 °C).
With UGCAAGCAAUAUUACGCGCG, the “self-splicing fitness (ln)” value was -1.84 ± 0.13 (30 °C) and -0.733 ± 0.17 (37 °C).
UUCCAGCAAUAUUACGAAAU: the “self-splicing fitness (ln)” value was -2.78 ± 0.36 (30 °C) and -1.58 ± 0.32 (37 °C).
As to CCCUAGCAAUAUUACGUUCA, the “self-splicing fitness (ln)” value (30 °C) is -3.05 ± 0.19 and the “self-splicing fitness (ln)” value (37 °C) is -2.7 ± 0.2.
For UAUCAGCAAUAUUACGUGUU the same measures were -3.36 ± 0.14 and -2.83 ± 0.12.
For GGUCAGCAAUAUUACGGUGA the same measures were -0.695 ± 0.074 and -1 ± 0.11.
Taken in the same sequence, the figures for AGGCAGCAAUAUUACGAUCC were -0.222 ± 0.051 and -0.211 ± 0.061.
Turning to GAGGAGCAAUAUUACGGUCC, the “self-splicing fitness (ln)” value (30 °C) was -2.95 ± 0.16 and the “self-splicing fitness (ln)” value (37 °C) was -0.994 ± 0.2.
Taken in the same sequence, the figures for UGGUAGCAAUAUUACGUGUG were -1.29 ± 0.071 and -0.469 ± 0.082.
As to CUGGAGCAAUAUUACGUCCA, where the note is “37 °C”, the “self-splicing fitness (ln)” value is -2.26 ± 0.44.
On to AGUCAGCAAUAUUACGUUUC, for which the “self-splicing fitness (ln)” value (30 °C) is -3.63 ± 0.15 and the “self-splicing fitness (ln)” value (37 °C) is -1.34 ± 0.11.
Taken in the same sequence, the figures for AAGUAGCAAUAUUACGACUC were 0.858 ± 0.25 and 0.537 ± 0.24.
Taken in the same sequence, the figures for UGCCAGCAAUAUUACGUUCG were -0.361 ± 0.07 and 0.136 ± 0.089.
GUGUAGCAAUAUUACGAAAA: the “self-splicing fitness (ln)” value by setting is: (30 °C) -2.71 ± 0.4; (37 °C) -1.51 ± 0.29.
As for UUUAAGCAAUAUUACGGACA, the “self-splicing fitness (ln)” value is -0.552 ± 0.17 (30 °C) and -0.126 ± 0.16 (37 °C).
Taken in the same sequence, the figures for AGGCAGCAAUAUUACGGACG were -0.899 ± 0.067 and -0.218 ± 0.095.
Taken in the same sequence, the figures for UAGCAGCAAUAUUACGAGUA were -1.39 ± 0.14 and -0.225 ± 0.14.
Taken in the same sequence, the figures for ACACAGCAAUAUUACGGGUG were -1.31 ± 0.053 and -0.999 ± 0.065.
Regarding GCUCAGCAAUAUUACGCGGU, the “self-splicing fitness (ln)” value was -3.01 ± 0.15 (30 °C) and -2.22 ± 0.21 (37 °C).
For UCUUAGCAAUAUUACGCCAG, the “self-splicing fitness (ln)” value (30 °C) was -2.74 ± 0.27.
GGCAAGCAAUAUUACGGGUU: the “self-splicing fitness (ln)” value (30 °C) was -0.709 ± 0.077 and the “self-splicing fitness (ln)” value (37 °C) was -0.607 ± 0.08.
For CAUAAGCAAUAUUACGGAAG the same measures were -1.43 ± 0.075 and -0.578 ± 0.096.
